Test results: patent US7183387 (Genentech, dated 2007)

B1: anti-IgE E27 IgG1 Asp265Asn (antibody)
heavy: not shown
light: DIQLTQSPSSLSASVGDRVTITCRASKPVDGEGDSYLNWYQQKPGKAPKLLIYAASYLESGVPSRFSGSGSGTDFTLTISSLQPEDFATYYCQQSHEDPYTFGQGTKVEIKRTVAAPSVFIFPPSDEQLKSGTASVVCLLNNFYPREAKVQWKVDNALQSGNSQESVTEQDSKDSTYSLSSTLTLSKADYEKHKVYACEVTHQGLSSPVTKSFNRGEC
B2: anti-IgE E27 IgG1 Ser298Asn (antibody)
heavy: not shown
light: DIQLTQSPSSLSASVGDRVTITCRASKPVDGEGDSYLNWYQQKPGKAPKLLIYAASYLESGVPSRFSGSGSGTDFTLTISSLQPEDFATYYCQQSHEDPYTFGQGTKVEIKRTVAAPSVFIFPPSDEQLKSGTASVVCLLNNFYPREAKVQWKVDNALQSGNSQESVTEQDSKDSTYSLSSTLTLSKADYEKHKVYACEVTHQGLSSPVTKSFNRGEC
B3: E27 IgG1 variant E380(405)A/N434(465)A (antibody)
heavy: not shown
light: DIQLTQSPSSLSASVGDRVTITCRASKPVDGEGDSYLNWYQQKPGKAPKLLIYAASYLESGVPSRFSGSGSGTDFTLTISSLQPEDFATYYCQQSHEDPYTFGQGTKVEIKRTVAAPSVFIFPPSDEQLKSGTASVVCLLNNFYPREAKVQWKVDNALQSGNSQESVTEQDSKDSTYSLSSTLTLSKADYEKHKVYACEVTHQGLSSPVTKSFNRGEC
notes: also called IG2 269
B4: anti-IgE E27 IgG1 Gln419 changed to Ala (antibody)
heavy: not shown
light: DIQLTQSPSSLSASVGDRVTITCRASKPVDGEGDSYLNWYQQKPGKAPKLLIYAASYLESGVPSRFSGSGSGTDFTLTISSLQPEDFATYYCQQSHEDPYTFGQGTKVEIKRTVAAPSVFIFPPSDEQLKSGTASVVCLLNNFYPREAKVQWKVDNALQSGNSQESVTEQDSKDSTYSLSSTLTLSKADYEKHKVYACEVTHQGLSSPVTKSFNRGEC
notes: named only by its position
B5: anti-IgE E27 IgG1 Lys414Ala (antibody)
heavy: not shown
light: DIQLTQSPSSLSASVGDRVTITCRASKPVDGEGDSYLNWYQQKPGKAPKLLIYAASYLESGVPSRFSGSGSGTDFTLTISSLQPEDFATYYCQQSHEDPYTFGQGTKVEIKRTVAAPSVFIFPPSDEQLKSGTASVVCLLNNFYPREAKVQWKVDNALQSGNSQESVTEQDSKDSTYSLSSTLTLSKADYEKHKVYACEVTHQGLSSPVTKSFNRGEC
B6: anti-IgE E27 IgG1 Lys322Ala (antibody)
heavy: not shown
light: DIQLTQSPSSLSASVGDRVTITCRASKPVDGEGDSYLNWYQQKPGKAPKLLIYAASYLESGVPSRFSGSGSGTDFTLTISSLQPEDFATYYCQQSHEDPYTFGQGTKVEIKRTVAAPSVFIFPPSDEQLKSGTASVVCLLNNFYPREAKVQWKVDNALQSGNSQESVTEQDSKDSTYSLSSTLTLSKADYEKHKVYACEVTHQGLSSPVTKSFNRGEC
notes: also called K322A
B7: E27 IgG1 variant E380(405)A/L309(328)A (antibody)
heavy: not shown
light: DIQLTQSPSSLSASVGDRVTITCRASKPVDGEGDSYLNWYQQKPGKAPKLLIYAASYLESGVPSRFSGSGSGTDFTLTISSLQPEDFATYYCQQSHEDPYTFGQGTKVEIKRTVAAPSVFIFPPSDEQLKSGTASVVCLLNNFYPREAKVQWKVDNALQSGNSQESVTEQDSKDSTYSLSSTLTLSKADYEKHKVYACEVTHQGLSSPVTKSFNRGEC
notes: also called IG2 271
B8: anti-IgE E27 IgG1 Asp270Asn (antibody)
heavy: not shown
light: DIQLTQSPSSLSASVGDRVTITCRASKPVDGEGDSYLNWYQQKPGKAPKLLIYAASYLESGVPSRFSGSGSGTDFTLTISSLQPEDFATYYCQQSHEDPYTFGQGTKVEIKRTVAAPSVFIFPPSDEQLKSGTASVVCLLNNFYPREAKVQWKVDNALQSGNSQESVTEQDSKDSTYSLSSTLTLSKADYEKHKVYACEVTHQGLSSPVTKSFNRGEC
B9: anti-IgE E27 IgG1 Pro331Ala (antibody)
heavy: not shown
light: DIQLTQSPSSLSASVGDRVTITCRASKPVDGEGDSYLNWYQQKPGKAPKLLIYAASYLESGVPSRFSGSGSGTDFTLTISSLQPEDFATYYCQQSHEDPYTFGQGTKVEIKRTVAAPSVFIFPPSDEQLKSGTASVVCLLNNFYPREAKVQWKVDNALQSGNSQESVTEQDSKDSTYSLSSTLTLSKADYEKHKVYACEVTHQGLSSPVTKSFNRGEC
notes: also called P331A
B10: anti-IgE E27 IgG1 Asp265Glu (antibody)
heavy: not shown
light: DIQLTQSPSSLSASVGDRVTITCRASKPVDGEGDSYLNWYQQKPGKAPKLLIYAASYLESGVPSRFSGSGSGTDFTLTISSLQPEDFATYYCQQSHEDPYTFGQGTKVEIKRTVAAPSVFIFPPSDEQLKSGTASVVCLLNNFYPREAKVQWKVDNALQSGNSQESVTEQDSKDSTYSLSSTLTLSKADYEKHKVYACEVTHQGLSSPVTKSFNRGEC

Experiments:
[1] = target: T1, human FcγRIIIA-Phe158 α subunit extracellular domain-His6-GST fusion (human, UniProt P08637 17-208); experiment: hexamer ELISA
T1 construct: extracellular domain; also called FcγRIIIA-F158; CD16; not shown: glutathione S transferase (GST)
T1 sequence (P08637 other isoform, or with tags, fused parts or gaps): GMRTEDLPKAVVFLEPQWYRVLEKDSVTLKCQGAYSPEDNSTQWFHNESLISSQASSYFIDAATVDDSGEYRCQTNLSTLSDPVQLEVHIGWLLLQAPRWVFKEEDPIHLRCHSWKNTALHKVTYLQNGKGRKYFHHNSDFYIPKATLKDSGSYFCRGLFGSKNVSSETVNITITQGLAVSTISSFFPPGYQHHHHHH

[2] = target: T2, human FcγRIIB α subunit extracellular domain-His6-GST fusion (human, UniProt P31994 43-217); experiment: hexamer ELISA
T2 construct: extracellular domain; also called CD32; not shown: glutathione S transferase (GST)
T2 sequence: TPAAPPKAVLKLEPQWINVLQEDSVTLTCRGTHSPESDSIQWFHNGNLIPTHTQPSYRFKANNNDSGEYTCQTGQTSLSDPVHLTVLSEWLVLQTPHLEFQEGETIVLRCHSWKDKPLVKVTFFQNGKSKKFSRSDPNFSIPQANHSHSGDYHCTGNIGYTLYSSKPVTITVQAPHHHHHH

[3] = target: T3, human FcγRIIA-Arg131 α subunit extracellular domain-His6-GST fusion (human, UniProt P12318 34-217); experiment: hexamer ELISA
T3 construct: extracellular domain; also called FcγRIIA-R131; not shown: glutathione S transferase (GST)
T3 sequence: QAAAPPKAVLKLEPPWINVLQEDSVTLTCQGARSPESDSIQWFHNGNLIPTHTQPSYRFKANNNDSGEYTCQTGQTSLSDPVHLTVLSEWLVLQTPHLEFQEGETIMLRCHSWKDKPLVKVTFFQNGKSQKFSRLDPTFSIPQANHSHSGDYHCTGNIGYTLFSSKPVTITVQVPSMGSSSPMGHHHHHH

[4] = target: T4, human FcRn, biotinylated (human, UniProt P55899 24-297; P61769 21-119, biotinylated (biotin-X-NHS)); experiment: ELISA, biotin-FcRn on streptavidin, pH 6.0
T4 construct: Captured on streptavidin plates; IgG added at pH 6.0; also called neonatal Fc receptor
Protocol: (§1) FcRn Binding ELISA: For measuring FcRn binding activity of IgG variants, ELISA plates were coated with 2 µg/ml streptavidin (Zymed, South San Francisco) in 50 mM carbonate buffer, pH 9.6, at 4° C. overnight and blocked with PBS-0.5% BSA, pH 7.2 at room temperature for one hour. Biotinylated FcRn (prepared using biotin-X-NHS from Research Organics, Cleveland, Ohio and used at 1–2 µg/ml) in PBS-0.5% BSA, 0.05% polysorbate 20, pH 7.2, was added to the plate and incubated for one hour. Two fold serial dilutions of IgG standard (1.6–100 ng/ml) or variants in PBS-0.5% BSA, 0.05% polysorbate 20, pH 6.0, were added to the plate and incubated for two hours. Bound IgG was detected using peroxidase labeled goat F(ab')_2 anti-human IgG F(ab')_2 in the above pH 6.0 buffer (Jackson ImmunoResearch, West Grove, Pa.) followed by 3,3',5,5'-tetramethyl benzidine (Kirgaard & Perry Laboratories) as the substrate. Plates were washed between steps with PBS-0.05% TWEEN 20® at either pH 7.2 or 6.0. Absorbance was read at 450 nm on a Vmax plate reader (Molecular Devices, Menlo Park, Calif.). Titration curves were fit with a four-parameter nonlinear regression curve-fitting program (KaleidaGraph, Synergy software, Reading, Pa.). Concentrations of IgG variants corresponding to the mid-point absorbance of the titration curve of the standard were calculated and then divided by the concentration of the standard corresponding to the mid-point absorbance of the standard titration curve.

[5] = target: T5, human FcγRIIA-R131 α subunit extracellular domain-6His-GST fusion (human, UniProt P12318 34-217); experiment: ELISA, IgG:IgE hexamers on receptor-GST
T5 construct: also called FcγRIIA-Arg131; not shown: glutathione S-transferase (GST)
T5 sequence: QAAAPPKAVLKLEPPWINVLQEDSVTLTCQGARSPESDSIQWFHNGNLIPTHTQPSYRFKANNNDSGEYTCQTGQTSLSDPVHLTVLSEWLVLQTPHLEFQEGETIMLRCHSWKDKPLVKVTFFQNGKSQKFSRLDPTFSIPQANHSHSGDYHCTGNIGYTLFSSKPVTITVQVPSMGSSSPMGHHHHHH

[6] = target: T6, human FcγRIIB α subunit extracellular domain-6His-GST fusion (human, UniProt P31994 43-217); experiment: ELISA, IgG:IgE hexamers on receptor-GST
T6 construct: not shown: glutathione S-transferase (GST)
T6 sequence: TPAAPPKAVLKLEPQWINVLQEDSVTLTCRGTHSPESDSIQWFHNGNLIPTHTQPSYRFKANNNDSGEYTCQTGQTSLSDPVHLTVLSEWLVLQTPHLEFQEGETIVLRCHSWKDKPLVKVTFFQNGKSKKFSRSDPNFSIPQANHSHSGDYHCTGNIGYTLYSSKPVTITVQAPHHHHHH

[7] = target: T7, human FcγRIIIA-F158 α subunit extracellular domain-6His-GST fusion (human, UniProt P08637 17-208); experiment: ELISA, IgG:IgE hexamers on receptor-GST
T7 construct: also called FcγRIIIA-Phe158; not shown: glutathione S-transferase (GST)
T7 sequence (P08637 other isoform, or with tags, fused parts or gaps, form in doubt): as the sequence (P08637 other isoform, or with tags, fused parts or gaps) above

[8] = target: T8, human neonatal Fc receptor (FcRn), biotinylated (human, UniProt P55899 24-297; P61769 21-119, biotinylated (biotin-X-NHS)); experiment: FcRn ELISA, pH 6.0;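 note: Streptavidin-captured FcRn plates, IgG variants titrated 2 h at pH 6.0, peroxidase anti-human IgG read at 450 nm, variant over standard concentration at the standard curve mid-point absorbance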
T8 construct: captured on streptavidin plates
Protocol: as §1

[9] = target: T1, human FcγRIIIA-Phe158 α subunit …; experiment: hexamer ELISA; remark: listed apart in the source
[10] = target: T2, human FcγRIIB α subunit extracellular …; experiment: hexamer ELISA; remark: listed apart in the source
[11] = target: T3, human FcγRIIA-Arg131 α subunit …; experiment: hexamer ELISA; remark: listed apart in the source
[12] = target: T9, human FcγRIA α subunit extracellular domain-His6-GST fusion (human, UniProt P12314 16-292); experiment: FcγRI ELISA and THP-1 cells, averaged
T9 construct: extracellular domain; also called GST-FcγRIA; CD64; not shown: glutathione S transferase (GST)
T9 sequence (P12314 other isoform, or with tags, fused parts or gaps): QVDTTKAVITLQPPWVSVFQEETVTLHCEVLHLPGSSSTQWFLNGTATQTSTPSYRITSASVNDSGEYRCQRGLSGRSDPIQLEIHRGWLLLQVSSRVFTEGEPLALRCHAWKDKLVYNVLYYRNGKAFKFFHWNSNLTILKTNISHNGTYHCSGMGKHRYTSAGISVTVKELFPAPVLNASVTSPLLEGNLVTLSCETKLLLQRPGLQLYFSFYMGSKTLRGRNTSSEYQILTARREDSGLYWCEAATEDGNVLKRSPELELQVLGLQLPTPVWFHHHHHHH

[13] = target: T9, human FcγRIA α subunit extracellular …; experiment: FcγRI ELISA, E27 background
Protocol: Prior to assay, plates are washed 3× with 250 μl of wash buffer (PBS pH 7.4 containing 0.5% TWEEN 20™) and blocked with 250 μl of assay buffer (50 mM Tris buffered saline, 0.05% TWEEN 20™, 0.5% RIA grade bovine albumin (Sigma A7888), and 2 mM EDTA pH 7.4). Samples diluted to 10 μg/ml in 1 ml of assay buffer are added to FcγRI α subunit coated plates and incubated for 120 minutes at 25° C. on an orbital shaker. […] Plates are washed 5× with wash buffer to remove unbound HRP goat anti-human IgG and bound anti-IgG is detected by adding 100 μl of substrate solution (0.4 mg/ml o-phenylenedaimine dihydrochloride, Sigma P6912, 6 mM H_2O_2 in PBS) and incubating for 8 min at 25° C. Enzymatic reaction is stopped by the addition of 100 μl 4.5N H_2SO_4 and colorimetric product is measured at 490 nm on a 96 well plate densitometer (Molecular Devices). Binding of variant is expressed as a percent of the wild type molecule.

[14] = target: T1, human FcγRIIIA-Phe158 α subunit …; experiment: immune complex ELISA, E27 background
[15] = target: T2, human FcγRIIB α subunit extracellular …; experiment: immune complex ELISA, E27 background
[16] = target: T3, human FcγRIIA-Arg131 α subunit …; experiment: immune complex ELISA, E27 background

binding result [1] | binding result [2] | binding result [3] | ratio to native IgG1 [8] [ratio] | ratio to native IgG1 [9] [ratio] | ratio to native IgG1 [10] [ratio] | ratio to native IgG1 [11] [ratio] | ratio to native IgG1 [12] [ratio] | further results | Binder
no binding | no binding | no binding |  |  |  |  |  |  | B1
no binding | no binding | no binding |  |  |  |  |  |  | B2
 |  |  |  |  |  |  |  | ratio to native IgG1 [4]: 8; ratio to native IgG1 [5]: 1.02; ratio to native IgG1 [6]: 1.05; ratio to native IgG1 [7]: 1.02 | B3
 |  |  |  |  |  |  |  | reduction in binding against native IgG1 [2]: 40%; reduction in binding against native IgG1 [3]: 30% | B4
 |  |  | 1.02 | 0.82 | 0.58 | 0.64 | 1 | reduction in binding against native IgG1 [2]: 40%; reduction in binding against native IgG1 [3]: 40% | B5
 |  |  | 0.98 | 0.62 | 1.28 | 1.17 | 0.94 | percentage of the wild type [13]: 90%; percentage of the wild type [14]: 90%; percentage of the wild type [15]: 101%; percentage of the wild type [16]: 109% | B6
 |  |  |  |  |  |  |  | ratio to native IgG1 [4]: 0.9; ratio to native IgG1 [5]: 0.98; ratio to native IgG1 [6]: 1.04; ratio to native IgG1 [7]: 0.92 | B7
no binding | no binding | no binding |  |  |  |  |  |  | B8
 |  |  | 0.85 | 1.08 | 1.34 | 1.29 | 1.01 | percentage of the wild type [13]: 74%; percentage of the wild type [14]: 73%; percentage of the wild type [15]: 58%; percentage of the wild type [16]: 86% | B9
no binding | no binding | no binding |  |  |  |  |  |  | B10
